Experimental data published in article PMC6768852, “The structural basis for RNA selectivity by the IMP family of RNA-binding proteins”.

Legend:
[1] = target: T1, IMP2 KH34 (UniProt Q9Y6M1 425-581); test: EMSA; EMSA: 100 pM RNA, 10 mM Tris, 100 mM NaCl, 0.1 mM EDTA, 0.01 mg/mL tRNA, 50 ug/mL heparin, 0.01% IGEPAL CA630, room temperature, 3 h; pH not stated; details: protein: recombinant; tags: MBP
[2] = target: T2, ZBP1 KH34 (UniProt Q9NZI8 405-553); test: as above; details: protein: recombinant; tags: MBP
T2 sequence (Q9NZI8 405-553): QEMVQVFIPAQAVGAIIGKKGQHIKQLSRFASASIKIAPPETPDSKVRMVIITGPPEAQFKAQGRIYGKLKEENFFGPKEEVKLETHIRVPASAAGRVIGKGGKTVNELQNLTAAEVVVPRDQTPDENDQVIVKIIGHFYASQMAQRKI

[3] = target: T2, ZBP1 KH34; test: EMSA; text: tight to IMP2 and not to ZBP1; EMSA: 100 pM RNA, 10 mM Tris, 100 mM NaCl, 0.1 mM EDTA, 0.01 mg/mL tRNA, 50 ug/mL heparin, 0.01% IGEPAL CA630, room temperature, 3 h; pH not stated; details: protein: recombinant; tags: MBP
[4] = target: T1, IMP2 KH34; test: EMSA; tenfold higher affinity than WT zipcode; EMSA: 100 pM RNA, 10 mM Tris, 100 mM NaCl, 0.1 mM EDTA, 0.01 mg/mL tRNA, 50 ug/mL heparin, 0.01% IGEPAL CA630, room temperature, 3 h; pH not stated; details: protein: recombinant; tags: MBP
[5] = target: T3, IMP2 KH34 (NMR) (UniProt Q9Y6M1 425-581); test: NMR titration; bound by KH4, intermediate exchange; EMSA: 100 pM RNA, 10 mM Tris, 100 mM NaCl, 0.1 mM EDTA, 0.01 mg/mL tRNA, 50 ug/mL heparin, 0.01% IGEPAL CA630, room temperature, 3 h; pH not stated; details: protein: recombinant; tags: 6xHis
T3 sequence (Q9Y6M1 425-581): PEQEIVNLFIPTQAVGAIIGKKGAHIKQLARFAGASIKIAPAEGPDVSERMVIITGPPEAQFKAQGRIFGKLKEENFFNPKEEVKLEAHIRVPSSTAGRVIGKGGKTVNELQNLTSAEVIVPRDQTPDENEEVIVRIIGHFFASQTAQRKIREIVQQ

[6] = target: T3, IMP2 KH34 (NMR); test: NMR titration; bound by KH3, fast exchange; EMSA: 100 pM RNA, 10 mM Tris, 100 mM NaCl, 0.1 mM EDTA, 0.01 mg/mL tRNA, 50 ug/mL heparin, 0.01% IGEPAL CA630, room temperature, 3 h; pH not stated; details: protein: recombinant; tags: 6xHis

T1 sequence (Q9Y6M1 425-581): as above

B1: C28 beta-actin zipcode WT (ssRNA)
RNA: ACCGGACUGUUACCAACACCCACACCCC
B1 gave a Kd [1] of 161 ± 25 nM and a Kd [2] of 15 ± 4.9 nM.

B2: SELEX RNA #1 WT (ssRNA)
RNA: GGGCAGAGCGACGCAGUUUAGCGGCCUCAGCGAACCCUUUGGAACACUUCUCGAUAGUUGCGUGCGUCCAAA
B2: binds [1]; no binding [3].

B3: SELEX RNA #2 (ssRNA)
RNA: GGGCAGAGCGACGCAGUUUAGCCUGUGUAUACAGCGAACCCUUAGGAUGAUCGAUAGUUGCGUGCGUCGAAA
B3: binds [1]; no binding [3].

B4: C28 A22U (ssRNA)
RNA: ACCGGACUGUUACCAACACCCUCACCCC
B4: binds [4].

B5: GG element RNA (3' RE) (ssRNA)
RNA: UUUGGAAC
B5: binds [5].

B6: CA element RNA (5' RE) (ssRNA)
RNA: CCCUCACC
B6: binds [6].
